No end group written: not given here.
T1: cynomolgus GalR2 (Macaca fascicularis, UniProt A0A2K5WWW1 1-386)
T1 sequence: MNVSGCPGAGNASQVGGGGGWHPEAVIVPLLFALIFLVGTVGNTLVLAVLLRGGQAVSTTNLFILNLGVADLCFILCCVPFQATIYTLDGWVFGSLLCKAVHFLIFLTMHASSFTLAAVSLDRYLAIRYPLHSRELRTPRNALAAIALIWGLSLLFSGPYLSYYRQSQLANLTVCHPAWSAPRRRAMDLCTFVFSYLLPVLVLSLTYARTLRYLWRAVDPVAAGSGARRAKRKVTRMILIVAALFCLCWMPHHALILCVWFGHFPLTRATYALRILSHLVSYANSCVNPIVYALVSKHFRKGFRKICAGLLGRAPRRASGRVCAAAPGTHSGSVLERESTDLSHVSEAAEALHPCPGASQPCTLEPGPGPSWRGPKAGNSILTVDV

T2: rat GalR2 (Rattus rattus, UniProt O08726 1-372)
T2 sequence (looked up): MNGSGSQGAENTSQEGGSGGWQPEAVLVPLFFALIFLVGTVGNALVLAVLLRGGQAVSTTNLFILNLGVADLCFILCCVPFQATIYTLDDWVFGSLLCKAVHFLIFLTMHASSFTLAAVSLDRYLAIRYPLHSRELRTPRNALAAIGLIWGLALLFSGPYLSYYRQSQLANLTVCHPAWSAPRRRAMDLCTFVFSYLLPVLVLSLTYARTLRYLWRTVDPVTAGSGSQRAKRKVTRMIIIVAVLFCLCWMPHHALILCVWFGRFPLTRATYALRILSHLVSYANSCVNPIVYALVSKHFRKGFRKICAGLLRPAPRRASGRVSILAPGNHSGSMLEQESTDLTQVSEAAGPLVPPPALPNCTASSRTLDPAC

T3: mouse GalR2 (Mus musculus, UniProt O88854 1-371)
T3 sequence (looked up): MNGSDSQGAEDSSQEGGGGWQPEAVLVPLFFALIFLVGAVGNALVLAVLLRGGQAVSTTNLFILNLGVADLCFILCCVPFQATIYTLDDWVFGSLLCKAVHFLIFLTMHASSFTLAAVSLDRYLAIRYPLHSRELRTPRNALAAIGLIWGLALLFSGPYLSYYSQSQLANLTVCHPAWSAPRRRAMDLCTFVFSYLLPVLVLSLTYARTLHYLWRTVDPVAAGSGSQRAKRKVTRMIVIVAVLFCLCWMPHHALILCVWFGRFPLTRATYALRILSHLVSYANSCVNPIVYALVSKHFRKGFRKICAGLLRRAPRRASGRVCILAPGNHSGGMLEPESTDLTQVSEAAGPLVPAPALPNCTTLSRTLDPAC

T4: human GalR1 (human, UniProt P47211 1-349)
T4 sequence (looked up): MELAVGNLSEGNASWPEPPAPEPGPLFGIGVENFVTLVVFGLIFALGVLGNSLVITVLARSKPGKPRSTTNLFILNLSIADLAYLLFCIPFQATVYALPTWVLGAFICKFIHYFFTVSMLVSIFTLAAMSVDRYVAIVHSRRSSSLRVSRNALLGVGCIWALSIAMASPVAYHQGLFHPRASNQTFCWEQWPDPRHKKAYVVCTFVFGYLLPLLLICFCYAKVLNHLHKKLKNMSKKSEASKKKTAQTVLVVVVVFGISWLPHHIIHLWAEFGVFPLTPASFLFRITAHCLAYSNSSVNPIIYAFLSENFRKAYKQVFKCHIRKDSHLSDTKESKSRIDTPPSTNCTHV

T5: human GalR2 (human, UniProt O43603 1-387)
T5 sequence (looked up): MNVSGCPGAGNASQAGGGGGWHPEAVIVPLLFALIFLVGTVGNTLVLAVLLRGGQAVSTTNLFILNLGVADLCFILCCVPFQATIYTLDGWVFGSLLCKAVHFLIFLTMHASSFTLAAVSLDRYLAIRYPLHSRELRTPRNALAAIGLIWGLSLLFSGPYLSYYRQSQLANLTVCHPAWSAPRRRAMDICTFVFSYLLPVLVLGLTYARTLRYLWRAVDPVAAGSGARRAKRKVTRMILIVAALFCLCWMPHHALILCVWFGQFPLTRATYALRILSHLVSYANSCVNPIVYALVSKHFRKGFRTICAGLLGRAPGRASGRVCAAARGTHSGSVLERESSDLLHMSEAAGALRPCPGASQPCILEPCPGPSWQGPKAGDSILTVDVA


Tests used:
Test in all cases: cell-based or functional assay
[1] = target: T1, cynomolgus GalR2
[2] = target: T2, rat GalR2
[3] = target: T3, mouse GalR2
[4] = target: T4, human GalR1
[5] = target: T5, human GalR2

Binder	calcium assay activity (quantity not given) [1]	calcium assay activity (quantity not given) [2]	calcium assay activity (quantity not given) [3]	Beta Arrestin IA (%) [4] [%]	Beta Arrestin pEC50 [4] [pEC50]	cAMP IA (%) [4] [%]	cAMP pEC50 [4] [pEC50]	Beta Arrestin pEC50 [5] [pEC50]	Calcium pEC50 [5] [pEC50]
RGRGNWTLNSAGYLLGPVLPPPALALA [M1145]				24.5		86.7	6.8	7.9	8.9
WTLNSAGYLL [Galanin 2-11]								6.4	7.6
GWTLNSAGYLLGPQPPGFSPFR [M617]				99	8.68	90.1	10	8.4	9.6

Further lines, results first:

calcium assay activity (quantity not given) [1]	calcium assay activity (quantity not given) [2]	calcium assay activity (quantity not given) [3]	Beta Arrestin IA (%) [4] [%]	Beta Arrestin pEC50 [4] [pEC50]	cAMP IA (%) [4] [%]	cAMP pEC50 [4] [pEC50]	Beta Arrestin pEC50 [5] [pEC50]	Calcium pEC50 [5] [pEC50]	Binder
9.6	8.8	9							GWTLNSAGYLLGPHAVGNHRSFSDKNGLTS [Galanin 1-30 (human)]
			67.2	8.09	90.8	8.6	8.1	9.2	WTLNSAGYLLGPHAIDNHRSFHDKYGLA [Galanin 2-29 (rat)]
			7		66	6.5	5.8	6.9	WTLNSAGYLLGPKKKKK (also: PEG (dPEG24) on one lysine, site not given here) [Nax409-9]
							7.2	8.6	GWTLNSAGYLLGPHA [Galanin 1-15]

— patent US20260209301A1 (LIFEARC, published 2026)
